Test results from article PMC4240464 (The Febs Journal, 2013).

Assays:
Test in all cases: cell-based or functional assay
CCL3 = target: T1, CCL3 (human, UniProt P10147 24-92)
T1 sequence: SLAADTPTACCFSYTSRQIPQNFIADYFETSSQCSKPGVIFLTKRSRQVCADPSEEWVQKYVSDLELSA

CCL22 = target: T2, CCL22 (human, UniProt O00626 25-93)
T2 sequence: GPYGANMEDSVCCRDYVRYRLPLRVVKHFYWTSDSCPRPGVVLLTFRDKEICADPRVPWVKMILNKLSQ

CCL24 = target: T3, CCL24 (human, UniProt O00175 27-119)
T3 sequence: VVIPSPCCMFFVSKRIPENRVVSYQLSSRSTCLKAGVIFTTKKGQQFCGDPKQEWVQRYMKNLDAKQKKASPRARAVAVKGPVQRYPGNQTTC

CCL11 = CCL11 (human, UniProt P51671 24-97)
CCL3L1 = target: T4, CCL3L1 (human, UniProt P16619 24-93)
T4 sequence: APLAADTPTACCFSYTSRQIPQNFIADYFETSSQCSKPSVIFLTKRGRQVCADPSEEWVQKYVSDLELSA

CCL8 = target: T5, CCL8 (human, UniProt P80075 24-99)
T5 sequence: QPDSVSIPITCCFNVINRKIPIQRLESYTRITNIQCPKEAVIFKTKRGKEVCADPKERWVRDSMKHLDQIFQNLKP

CCL15 = target: T6, CCL15 (human, UniProt Q16663)
T6 sequence: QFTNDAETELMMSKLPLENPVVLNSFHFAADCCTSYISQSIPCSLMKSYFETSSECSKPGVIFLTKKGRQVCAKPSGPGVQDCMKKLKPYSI

CCL7 = CCL7 (human, UniProt P80098 24-99)
CCL17 = target: T7, CCL17 (human, UniProt Q92583 24-94)
T7 sequence: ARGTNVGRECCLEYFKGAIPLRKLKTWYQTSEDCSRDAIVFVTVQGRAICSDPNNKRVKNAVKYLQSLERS

CCL26 = target: T8, CCL26 (human, UniProt Q9Y258 24-94)
T8 sequence: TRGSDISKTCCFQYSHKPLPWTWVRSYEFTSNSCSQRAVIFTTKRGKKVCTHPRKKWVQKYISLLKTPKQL

CCL5 (wild type) = target: T9, CCL5 (wild type) (human, UniProt P13501 24-91)
T9 sequence: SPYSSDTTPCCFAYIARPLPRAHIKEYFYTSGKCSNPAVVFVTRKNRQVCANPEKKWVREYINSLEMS

CCL23 = target: T10, CCL23 (human, UniProt P55773)
T10 sequence: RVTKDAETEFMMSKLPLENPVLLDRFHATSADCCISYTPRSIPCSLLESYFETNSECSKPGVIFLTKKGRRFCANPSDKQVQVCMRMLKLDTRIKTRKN

CCL16 = target: T11, CCL16 (human, UniProt O15467 24-120)
T11 sequence: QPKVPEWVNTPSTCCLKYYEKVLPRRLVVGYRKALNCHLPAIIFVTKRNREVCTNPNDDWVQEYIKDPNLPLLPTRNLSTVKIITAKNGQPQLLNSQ

Chain of CCL11 (P51671 24-97): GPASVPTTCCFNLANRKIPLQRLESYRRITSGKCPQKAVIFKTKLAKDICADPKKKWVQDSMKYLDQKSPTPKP
Chain of CCL7 (P80098 24-99): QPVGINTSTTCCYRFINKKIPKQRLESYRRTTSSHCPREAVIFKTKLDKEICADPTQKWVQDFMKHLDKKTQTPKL

B1: Evasin-4 (untagged recombinant) (natural protein)
chain: EVPQMTSSSAPDLEEEDDYTAYAPLTCYFTNSTLGLLAPPNCSVLCNSTTTWFNETSPNNASCLLTVDFLTQDAILQENQPYNCSVGHCDNGTCAGPPRHAQCW
modifications: appears to be highly glycosylated (six putative N-glycosylation sites)
- IC50, inhibition of chemotaxis of 300.19CCR1 cells to CCL3 (EC80 1 nM) (CCL3): 2 nM
- IC50, inhibition of chemotaxis of L1.2/CCR5 cells to CCL3 (EC80 40 nM) (CCL3): 4.4 nM
- IC50, inhibition of chemotaxis of L1.2/CCR4 cells to CCL22 (EC80 1 nM) (CCL22): 38 nM
- IC50, inhibition of chemotaxis of L1.2/CCR3 cells to CCL24 (EC80 10 nM) (CCL24): 95 nM
- IC50, inhibition of chemotaxis of L1.2/CCR3 cells to CCL11 (EC80 1 nM) (CCL11): 14 nM
- IC50, inhibition of chemotaxis of eosinophils to CCL11 (EC80 1 nM) (CCL11): 4.9 nM
- IC50, inhibition of chemotaxis of L1.2/CCR5 cells to CCL3L1 (EC80 1 nM) (CCL3L1): 3.5 nM
- IC50, inhibition of chemotaxis of L1.2/CCR3 cells to CCL8 (EC80 5 nM) (CCL8): 3.6 nM
- IC50, inhibition of chemotaxis of eosinophils to CCL8 (EC80 10 nM) (CCL8): 3.1 nM
- IC50, inhibition of chemotaxis of L1.2/CCR3 cells to CCL15 (EC80 100 nM) (CCL15): 88 nM
- IC50, inhibition of chemotaxis of eosinophils to CCL7 (EC80 10 nM) (CCL7): 5 nM
- IC50, inhibition of chemotaxis of L1.2/CCR4 cells to CCL17 (EC80 1 nM) (CCL17): 69 nM
- IC50, inhibition of chemotaxis of L1.2/CCR3 cells to CCL26 (EC80 10 nM) (CCL26): 68 nM
- IC50, inhibition of chemotaxis of eosinophils to CCL26 (EC80 50 nM) (CCL26): 101 nM
- IC50, inhibition of chemotaxis of 300.19/CCR1 cells to CCL5 (EC80 1 nM) (CCL5 (wild type)): 2.2 nM
- IC50, inhibition of chemotaxis of L1.2/CCR5 cells to CCL5 (EC80 1 nM) (CCL5 (wild type)): 4.8 nM
- IC50, inhibition of chemotaxis of monocytes to CCL5 (EC80 10 nM) (CCL5 (wild type)): 1.5 nM
- IC50, inhibition of chemotaxis of 300.19/CCR1 cells to CCL23 (EC80 10 nM) (CCL23): 2.2 nM
- IC50, inhibition of chemotaxis of 300.19/CCR1 cells to CCL16 (EC80 250 nM) (CCL16): 304 nM
